Consider three molecules from PMC10463352, “A signaling complex of adenylate cyclase CyaC of Sinorhizobium meliloti with cAMP and the transcriptional regulators Clr and CycR” (BMC Microbiology, 2023).

To fix the notation:
B1: CycR-Strep (natural protein, Sinorhizobium meliloti, UniProt Q92MZ5 1-213, looked up)
chain: MVLPRAARTQRRTRIQEEKEEQILEAALEVFSANGFRGSTIDQIADVAGMSKPNLLYYFRTKEAMHRALIDRVLDTWLDPLRAFDAEGNPVAEIRSYIRRKLEMARDFPRESRLFANEVLQGAPRIVDELKGPLKQLVDEKAEVIRSWAKAGKIAKCDPYHLIFAIWSTTQHYADFDVQVRAVLGQENAGEGRFEDAARFLERLFVDGLQVRE
notes: TetR-like transcriptional regulator CycR (TR01819, product of gene smc01819) of Sinorhizobium meliloti; CycR-Strep printed as 28.3 kDa; The purification is told in words only for Clr-Strep; also called Strep-CycR; TR01819; source: E. coli BL21(DE3) with pMW3065, purified; not shown: Strep, C-terminal, kept
B2: His6-CyaC (enzyme, Sinorhizobium meliloti, UniProt Q92MZ6 1-557, looked up)
chain: MTILSASTRKKMHLISGAVLGVFVLLHFSNHALGLVSIDAMETGRRIFTSVWQSIPGTALLYGALLLHFLMALDSLYRRQTFRMPVGEALKIIFGLSLPFLLVPHVVAARVEPLLSGVYPDYPAILRTLWSSSFNTSRQSLALIVVWGHACLGAWFWMRGRAWFPKYETLLYTVALLVPIFALLGFVNGARSLERDYAEHGGYGDRAYSSQAPRVDPNLLDKIRLAFYGGFASLIGGTLVLRALPARGRIRIRYPDGRVAAVSLGFSVLEASRAAGIPHVSVCGGRGRCSTCRVRITQGLEGQPPPEAAELATLTRIGAPENVRLACQFRPVHNVSVVPILDTDSLGIKTQLARQNAGGRERRVAVLFCDLRDFTRIAEHRLPYDTVFLLNRYFEVVGEAVEGSGGVVDKFIGDGALAIFGLKTPLPEACRQALSAAARLSQGIRALNQTFEGELEQPLRLAIGLHAGPAIIGEMGYGQATSLTVVGDTINTASRLEGLAKEHDVELAVSAELVERAGLSFEGHRRLEIGLRGRKATLETWIIGDAAQLSLSLPMQG
notes: His6-CyaC printed as 64.0 kDa; Solubilised in detergent; also called SMc01818 protein; source: E. coli C43(DE3) with pMW3043, extracted from membranes with 1% n-dodecyl-β-D-maltoside, purified (Ni2+-NTA); not shown: His6, N-terminal, kept

Experiment [1] has as its target CyaC(K410A T484A), fused to the T18 or T25 fragment of Bordetella pertussis adenylate cyclase (Sinorhizobium meliloti). Kind of experiment: two-hybrid; bacterial adenylate cyclase two-hybrid (BACTH) in E. coli BTH101; T18 and T25 fusions co-expressed from plasmids; grown anaerobically in LB with 20 mM DMSO; β-galactosidase read-out, percent of the Zip-T18/Zip-T25 positive control.

Experiment [2] concerns the target B2. The experiment in a line: SPR; Biacore T200, CM5 chip with StrepTactin; about 200 RU CycR-Strep captured; His6-CyaC injected at 10-5,000 nM; HBS-EP+ (10 mM HEPES pH 7.4, 150 mM NaCl, 3 mM EDTA, 0.05% P20), 25 °C; with 500 µM cAMP. The note with it: both partners purified. A general note: In SPR one partner is held on a chip, and binding of the other changes the refractive index at the surface.

In experiment [3] the target is B2. Kind of experiment: SPR; Biacore T200, CM5 chip with StrepTactin; about 200 RU CycR-Strep captured; His6-CyaC injected at 10-5,000 nM; HBS-EP+ (10 mM HEPES pH 7.4, 150 mM NaCl, 3 mM EDTA, 0.05% P20), 25 °C; without cAMP. The note with it: both partners purified.
The experiment “CycR-Strep” concerns the target B1. The experiment is described as above. The note with it: both partners purified.

Turning to “Clr (Smc02175), fused to the T18 or T25 fragment of Bordetella pertussis adenylate cyclase (natural protein)”, the BACTH β-galactosidase activity, percent of the Zip positive control in experiment [1] is 108%.
Turning to B1, the figures for the Kd with His6-CyaC [2] and with His6-CyaC [3] were 114 nM and 160 nM, respectively.
For the molecule B2, the stoichiometry N – broadly, a count of units in the complex or per binding partner – with CycR-Strep was 1.
